For this test, the target named is Recombinant human cartilage oligomeric matrix protein (COMP) (human) (UniProt P49747). As to the kind of experiment: atomic force microscopy.

A word on the stoichiometry N: it is a count of units in the complex or per binding partner.

Chain of Recombinant human cartilage oligomeric matrix protein (COMP), P49747 21-757 (natural protein; other documents disagree on this pair) (P49747 21-757): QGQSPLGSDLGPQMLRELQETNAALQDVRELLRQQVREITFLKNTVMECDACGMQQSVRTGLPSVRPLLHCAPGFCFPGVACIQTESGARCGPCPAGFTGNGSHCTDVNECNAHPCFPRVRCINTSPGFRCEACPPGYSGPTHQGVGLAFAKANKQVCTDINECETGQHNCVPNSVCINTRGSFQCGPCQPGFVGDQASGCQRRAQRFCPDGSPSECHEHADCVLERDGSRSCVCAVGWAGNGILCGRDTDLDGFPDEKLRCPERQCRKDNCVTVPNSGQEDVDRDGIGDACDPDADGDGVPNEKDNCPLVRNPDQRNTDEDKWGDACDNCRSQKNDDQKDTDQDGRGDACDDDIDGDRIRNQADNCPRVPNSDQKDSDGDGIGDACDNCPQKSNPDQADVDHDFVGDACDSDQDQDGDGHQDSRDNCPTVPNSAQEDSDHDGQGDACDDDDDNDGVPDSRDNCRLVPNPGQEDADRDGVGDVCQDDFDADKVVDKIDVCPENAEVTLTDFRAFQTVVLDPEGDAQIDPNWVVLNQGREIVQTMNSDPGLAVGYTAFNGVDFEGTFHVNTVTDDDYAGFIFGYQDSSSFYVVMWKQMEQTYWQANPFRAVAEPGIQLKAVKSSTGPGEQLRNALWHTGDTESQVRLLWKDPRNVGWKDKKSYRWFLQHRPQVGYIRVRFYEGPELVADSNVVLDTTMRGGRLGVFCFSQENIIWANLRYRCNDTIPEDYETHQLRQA

For “Recombinant human cartilage oligomeric matrix protein (COMP), P49747 21-757 (natural protein; other documents disagree on this pair)”, the stoichiometry N was 5.

These data come from article PMC7891936.
